The source of these data is paper PMC6996891.

The target of this assay is attachment invasion locus (Ail) protein, wild type (Yersinia pestis). Briefly: native gel or EMSA.

On to “attachment invasion locus (Ail) protein, wild type (natural protein)”, for which the percent oligomers came to 20%.
